Results as given in patent US20050276799A1 (PDL BIOPHARMA, published 2005).

Experiments:
[1] = target: T1, recombinant, GPI-linked human FcRn on cell line NS0 HuFcRn (memb), clone 7-3 (human, UniProt P55899 24-297; P61769 21-119); assay: competition FACS vs biotinylated HuEP5C7-IgG2M3 on NS0 cells expressing human FcRn, FSB pH 6.0
T1 construct: Expressed from pDL208 on the surface of NS0 cells; also called human neonatal Fc receptor; not shown: human c-myc decapeptide flanked by linker peptides, then GPI linkage signal of human decay accelerating factor (vector p)

[2] = target: T1, recombinant, GPI-linked human FcRn on …; assay: IC50 of wild-type / IC50 of this antibody, same assay

Binder	IC50 [1] [µg/mL]	Relative Binding [2] [ratio]
OST577-IgG2M3 L314A (antibody) heavy: QVQLVESGGGVVQPGRSLRLSCAASGFTFSRYGMHWVRQAPGKGLEWVAVISYDGSNKWYADSVKGRFTISRDNSKNTLFLQMHSLRAADTGVYFCAKDQLYFGSQSPGHYWGQGTLVTVSSASTKGPSVFPLAPCSRSTSESTAALGCLVKDYFPEPVTVSWNSGALTSGVHTFPAVLQSSGLYSLSSVVTVPSSNFGTQTYTCNVDHKPSNTKVDKTVERKCCVECPPCPAPPAAAPSVFLFPPKPKDTLMISRTPEVTCVVVDVSHEDPEVQFNWYVDGVEVHNAKTKPREEQFNSTFRVVSVLTVVHQDWANGKEYKCKVSNKGLPAPIEKTISKTKGQPREPQVYTLPPSREEMTKNQVSLTCLVKGFYPSDIAVEWESNGQPENNYKTTPPMLDSDGSFFLYSKLTVDKSRWQQGNVFSCSVMHEALHNHYTQKSLSLSPSK light: SYVLTQPPSVSVAPGQTARITCGGDNIGSKSVNWFQQKPGQAPVLVVYDDNERPSGISERFSGSNSGNTATLTISRVEAGDEADYYCQVWDSSSDHVVFGGGTKLTVLGQPKAAPSVTLFPPSSEELQANKATLVCLISDFYPGAVTVAWKADSSPVKAGVETTTPSKQSNNKYAASSYLSLTPEQWKSHRSYSCQVTHEGSTVEKTVAPTECS	68.7	0.16
OST577-IgG2M3 T250D (antibody) heavy: QVQLVESGGGVVQPGRSLRLSCAASGFTFSRYGMHWVRQAPGKGLEWVAVISYDGSNKWYADSVKGRFTISRDNSKNTLFLQMHSLRAADTGVYFCAKDQLYFGSQSPGHYWGQGTLVTVSSASTKGPSVFPLAPCSRSTSESTAALGCLVKDYFPEPVTVSWNSGALTSGVHTFPAVLQSSGLYSLSSVVTVPSSNFGTQTYTCNVDHKPSNTKVDKTVERKCCVECPPCPAPPAAAPSVFLFPPKPKDDLMISRTPEVTCVVVDVSHEDPEVQFNWYVDGVEVHNAKTKPREEQFNSTFRVVSVLTVVHQDWLNGKEYKCKVSNKGLPAPIEKTISKTKGQPREPQVYTLPPSREEMTKNQVSLTCLVKGFYPSDIAVEWESNGQPENNYKTTPPMLDSDGSFFLYSKLTVDKSRWQQGNVFSCSVMHEALHNHYTQKSLSLSPSK light: SYVLTQPPSVSVAPGQTARITCGGDNIGSKSVNWFQQKPGQAPVLVVYDDNERPSGISERFSGSNSGNTATLTISRVEAGDEADYYCQVWDSSSDHVVFGGGTKLTVLGQPKAAPSVTLFPPSSEELQANKATLVCLISDFYPGAVTVAWKADSSPVKAGVETTTPSKQSNNKYAASSYLSLTPEQWKSHRSYSCQVTHEGSTVEKTVAPTECS		< 0.05
OST577-IgG2M3 L314W (antibody) heavy: QVQLVESGGGVVQPGRSLRLSCAASGFTFSRYGMHWVRQAPGKGLEWVAVISYDGSNKWYADSVKGRFTISRDNSKNTLFLQMHSLRAADTGVYFCAKDQLYFGSQSPGHYWGQGTLVTVSSASTKGPSVFPLAPCSRSTSESTAALGCLVKDYFPEPVTVSWNSGALTSGVHTFPAVLQSSGLYSLSSVVTVPSSNFGTQTYTCNVDHKPSNTKVDKTVERKCCVECPPCPAPPAAAPSVFLFPPKPKDTLMISRTPEVTCVVVDVSHEDPEVQFNWYVDGVEVHNAKTKPREEQFNSTFRVVSVLTVVHQDWWNGKEYKCKVSNKGLPAPIEKTISKTKGQPREPQVYTLPPSREEMTKNQVSLTCLVKGFYPSDIAVEWESNGQPENNYKTTPPMLDSDGSFFLYSKLTVDKSRWQQGNVFSCSVMHEALHNHYTQKSLSLSPSK light: SYVLTQPPSVSVAPGQTARITCGGDNIGSKSVNWFQQKPGQAPVLVVYDDNERPSGISERFSGSNSGNTATLTISRVEAGDEADYYCQVWDSSSDHVVFGGGTKLTVLGQPKAAPSVTLFPPSSEELQANKATLVCLISDFYPGAVTVAWKADSSPVKAGVETTTPSKQSNNKYAASSYLSLTPEQWKSHRSYSCQVTHEGSTVEKTVAPTECS	20.2	0.53
OST577-IgG2M3 M428G (antibody) heavy: QVQLVESGGGVVQPGRSLRLSCAASGFTFSRYGMHWVRQAPGKGLEWVAVISYDGSNKWYADSVKGRFTISRDNSKNTLFLQMHSLRAADTGVYFCAKDQLYFGSQSPGHYWGQGTLVTVSSASTKGPSVFPLAPCSRSTSESTAALGCLVKDYFPEPVTVSWNSGALTSGVHTFPAVLQSSGLYSLSSVVTVPSSNFGTQTYTCNVDHKPSNTKVDKTVERKCCVECPPCPAPPAAAPSVFLFPPKPKDTLMISRTPEVTCVVVDVSHEDPEVQFNWYVDGVEVHNAKTKPREEQFNSTFRVVSVLTVVHQDWLNGKEYKCKVSNKGLPAPIEKTISKTKGQPREPQVYTLPPSREEMTKNQVSLTCLVKGFYPSDIAVEWESNGQPENNYKTTPPMLDSDGSFFLYSKLTVDKSRWQQGNVFSCSVGHEALHNHYTQKSLSLSPSK light: SYVLTQPPSVSVAPGQTARITCGGDNIGSKSVNWFQQKPGQAPVLVVYDDNERPSGISERFSGSNSGNTATLTISRVEAGDEADYYCQVWDSSSDHVVFGGGTKLTVLGQPKAAPSVTLFPPSSEELQANKATLVCLISDFYPGAVTVAWKADSSPVKAGVETTTPSKQSNNKYAASSYLSLTPEQWKSHRSYSCQVTHEGSTVEKTVAPTECS	147	0.072
OST577-IgG2M3 L314Q (antibody) heavy: QVQLVESGGGVVQPGRSLRLSCAASGFTFSRYGMHWVRQAPGKGLEWVAVISYDGSNKWYADSVKGRFTISRDNSKNTLFLQMHSLRAADTGVYFCAKDQLYFGSQSPGHYWGQGTLVTVSSASTKGPSVFPLAPCSRSTSESTAALGCLVKDYFPEPVTVSWNSGALTSGVHTFPAVLQSSGLYSLSSVVTVPSSNFGTQTYTCNVDHKPSNTKVDKTVERKCCVECPPCPAPPAAAPSVFLFPPKPKDTLMISRTPEVTCVVVDVSHEDPEVQFNWYVDGVEVHNAKTKPREEQFNSTFRVVSVLTVVHQDWQNGKEYKCKVSNKGLPAPIEKTISKTKGQPREPQVYTLPPSREEMTKNQVSLTCLVKGFYPSDIAVEWESNGQPENNYKTTPPMLDSDGSFFLYSKLTVDKSRWQQGNVFSCSVMHEALHNHYTQKSLSLSPSK light: SYVLTQPPSVSVAPGQTARITCGGDNIGSKSVNWFQQKPGQAPVLVVYDDNERPSGISERFSGSNSGNTATLTISRVEAGDEADYYCQVWDSSSDHVVFGGGTKLTVLGQPKAAPSVTLFPPSSEELQANKATLVCLISDFYPGAVTVAWKADSSPVKAGVETTTPSKQSNNKYAASSYLSLTPEQWKSHRSYSCQVTHEGSTVEKTVAPTECS	32	0.33
OST577-IgG2M3 L314R (antibody) heavy: QVQLVESGGGVVQPGRSLRLSCAASGFTFSRYGMHWVRQAPGKGLEWVAVISYDGSNKWYADSVKGRFTISRDNSKNTLFLQMHSLRAADTGVYFCAKDQLYFGSQSPGHYWGQGTLVTVSSASTKGPSVFPLAPCSRSTSESTAALGCLVKDYFPEPVTVSWNSGALTSGVHTFPAVLQSSGLYSLSSVVTVPSSNFGTQTYTCNVDHKPSNTKVDKTVERKCCVECPPCPAPPAAAPSVFLFPPKPKDTLMISRTPEVTCVVVDVSHEDPEVQFNWYVDGVEVHNAKTKPREEQFNSTFRVVSVLTVVHQDWRNGKEYKCKVSNKGLPAPIEKTISKTKGQPREPQVYTLPPSREEMTKNQVSLTCLVKGFYPSDIAVEWESNGQPENNYKTTPPMLDSDGSFFLYSKLTVDKSRWQQGNVFSCSVMHEALHNHYTQKSLSLSPSK light: SYVLTQPPSVSVAPGQTARITCGGDNIGSKSVNWFQQKPGQAPVLVVYDDNERPSGISERFSGSNSGNTATLTISRVEAGDEADYYCQVWDSSSDHVVFGGGTKLTVLGQPKAAPSVTLFPPSSEELQANKATLVCLISDFYPGAVTVAWKADSSPVKAGVETTTPSKQSNNKYAASSYLSLTPEQWKSHRSYSCQVTHEGSTVEKTVAPTECS	102	0.11
